# Reference: the domain aggregation screens of Martell et al. (2025)
# Test: soluble fraction after stress (log2 fold change); higher = more stays soluble; pooled small domains, quantitative proteomics
# Settings: stress: 75 degC
# 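Note: 20 min heating vs room temperature control held 20 min.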
row,Sequence,soluble fraction (log2)
1,HMRTMRHLSVPRQETQQILSQLKAEFALPQGARVQPDPSDSKRTLIPVKEGAESELLSRYPVVHAEP,0.0613
2,HMRTNNEITSYKLKSGKKRWKFQTYLGLDDKGQKVSVTRQGFRTYNEAISEYNKLRAQGTQGYQ,-0.948
3,HMRTPTGVQAYLSSGLIKGIGEKTAAAIVDKFGTDALSVIETDPERLLEIPGITPNKLREILESYNQH,0.204
4,HMRTVAERYGLTAGQWRVLELLTQGKTNRQIAEMLDVTEGTVKIHVSAIFKAMKVTNRTQALLLAKKH,-1.28
5,HMRTYDPQAVELNNKALELINQGRLDSALLVYDQSIKTDKTYYFPHIGKSIIYMRKKDWNKAFEETQQAIK,0.493
6,HMRVDLATEVHSVLRRMMSRPPTLQEIRADLDGEEPGRVHEALDALRAAFRGGRGPKNPYESLKRSLRRG,-0.636
7,HMRVDLVQRLARHGLSPRQSAVAGGVLRGLDNGEISRQLYIAEQTVKDHLHEIYHRLGVHTRTELLIKVLG,-2.22
8,HMRVGISRNSGAAGIAVWLTQKLGRPVAKTEEIVHILKNWVDDQYEAGRVTNIGDGELWSVYKQMEAEE,-0.953
9,HMRVTEIDYGAFMKMIEEKNIGEVKVEDYEIVFTDKDNKNIYKTGIMDDPDLTQRLYNSGAVFA,0.0318
10,HMRWGDPLTVKVPSFIGQTKDDIAKQHYPFRIEWHGEGAKIGSQLPEVDSVIKQDGTIHLYLV,-0.0635
11,HMRYFDDEELNNKFLEFLSMRKKIRKPVRTDRALKALLKKLHELSGGDVGLMKQIIDQSLDKEWLGLFEL,-0.889
12,HMRYNPETTAGRRGLIIKMLDEYGQVNVNELSRYFNVSEVTVRNDLAYLERKNLLIRARGGAIKTE,-1.91
13,HMRYWVKSETDFLIENRGKYSYQEFADMLGRSYAVVYDKMHQLKIDYTKEELEIFDEKHKAQMREKQQR,-1.96
14,HMSAAPVGPWALSEFLDAVEKDSVERVTFDDAGKALVAVDADGGRHRVEILPSEGPEILAALRKHSVQFA,0.181
15,HMSADEVSQQLTSEQTKSKSYQALLQAYAAYQQKSFDDAALELQNVQQDVLSDSQKTIYNTISQAVNS,0.26
16,HMSADISIGYNIPKGSVTVSAGGRTLQEGIDYDINYDLGTIKITNQAILNAGLPVQVNFENNAS,0.849
17,HMSADLVYLRKRLQDAIAQLPENMRTAYTLFQIANRSIREISELTGASESLVKVRIHRAKGKLQKQLEDLK,-1.43
18,HMSAEDYLERIHELIESKGTAHVADIAQSLGVGKPSVTSMVQKLADEGYLNYEKYRSLTLTDSGRSIA,0.165
19,HMSAEDYMEMIYRLSQENGFTRVNDLASALNVQPPSVTRMIQKLAELNLIKYEKYGVIMLQPYGIEVGRSL,-2.65
20,HMSAEGPALADWVVRDAHSIGAKITNSVAQLLIDRVGHNQQLLHNELQKLALVQTDISAELVKTMSHY,-0.643
21,HMSAETRSWTDAQGNQTQAVLRGFDGGDVLLQNAAGKTLRVPVKNLSEDDQRYVVLNISTLID,-0.0549
22,HMSAITLDQARAIALDHAGISEGDATFVKEQTGTSSYEIEFYSGSNEYDYEIDKATGAILNVDR,0.22
23,HMSALAEELIKKNQAMILTIKPRDTIWGIANRFQSPPSEKFINQIIELNQVDPYRLRIGQDLLIPLN,-0.984
24,HMSALTDQQQRVLELVASGLVYKEVAAALSISEPTVKYHMGNILTRLHVKNRAQAIAAARQQGLL,-1.58
25,HMSAMKYTSEVFQRLSRGQFISSNSIDAETRAIYSDIEENQQEYEDYFSKIDFLLSSGDGFYYFSRK,-2.38

row,Sequence,soluble fraction (log2)
1,HMSAMSPTEVGERLRLAREAVRMTQKQAADAISVARTTLVAIEQGQRRVRIDELQQLAKTYGVSVNAILR,-2.27
2,HMSAPAKKPKIKVDLSKVHAGTIVRHKGYGLGQVKGIDGAIIVVTFDGVDKKFQFPGGFENGFLFLTED,-1.48
3,HMSAPLKELGNDPESGKPIVVKDGRFGAYVTDGETNATLRKTDAVESLTPERAAELLAEKRAKG,0.493
4,HMSAPTAFSERELELLAGMRRGASNKAMAEQLFISVNTVKYHRANLMRKLGARDRNEALEVAARLG,0.404
5,HMSAQDLIVKTDATQVEARVLEISPEQIRYKRFSNPDGPTYVLPVDAVDYIRYANGETDSFR,0.076
6,HMSASAIYVRPKDVKEPEEVADYLSGVLELDREKLYKKITDKSQWIALIERKVDNDIAFDIRNKKFKGIEI,-0.301
7,HMSASIAEGTVIMLENTTNIRSGMSEDSSKVGTAYAGEKVTVVMSYAEGWTKVKWNGETGYIKTALLQL,-0.607
8,HMSASNSIDFANRMIYNKNQVAVFNFGKHMGRPVLEVLKSDPSYYDWMMKGDFPMDTKRKLTEIKLQGF,-0.793
9,HMSATPQRMTIIDALDSSGKNLSAYELLDLLNDKGQLFNISTIYRVLDFWIEMGIVHKINSSNTYL,0.15
10,HMSATQDAAIAVRIRDILSELDGYEDVTVTVTSGIVTMRGTTLDSEKIARLNDLTGRVEGVVAIENSVTET,-0.207
11,HMSAVIGTATVTTSSGSLNLRESASLYSRVIRTIPRGATVDVLSRDTSWSRVRYAGSEGYVLNQYLTFQT,-2.1
12,HMSDAGMNQIGDMFRAPDLMAKLAMNPATREYVSQPDFLAMMEEVKRNPSALNNHLRDPRMMNVLSVAM,-0.271
13,HMSDAPLLSIRSLAVAFDGTRVVDGVSFDVARGEVVALVGESGSGKTVTGLSLLDLVPPPGRRVGGEV,0.278
14,HMSDDAVVRMRVPEDALGLSLRETDFRQRFGVYVLAIETRDGKLLAPPDPQRPLGKDDVLVVIQKR,-0.847
15,HMSDDLLTGLDAYSRGDWTTATASFERVLTTADPNNRTEALYWLVMSETSAQNYQRALNYANTFL,-0.707
16,HMSDDSTIVELLASSLRRDIAFGTLLPDQKLKLNELRTRYGGSIHSMRETLRILSAEGLVEATAQRGFRVT,0.0731
17,HMSDEIQLQFIQISIFKDHPWADMQIKDMNIIPDLLIVMILRDGERIIPNGNTRIMPGDMVIITAMSANT,-2.54
18,HMSDESALIAAIEKAIAAQPETAEKVRNGHLPAAGALIGSVMKETKGQADAARVRELLLGLLGQ,0.441
19,HMSDESRAEIVSSAKRLFQQYGYKKTTVSDIAKAMGKVKSAIYYYFPDKESLLRAVIDEEVG,0.0318
20,HMSDFEASDPALLREGMRVQHLNFGKGTVITIEGAGANKKASVAFDGVGTKQLMLRFARLKIIYE,-2.59
21,HMSDFKDIILKLRNEQGFTQEKLADVLGTSKSTVGMWEMGVRFPSKELYEAIADYFNVDIDYLYGRTDIR,-0.83
22,HMSDGYETLVNMAKPFLNNSKQITENDITDAVNTVSVMLKKRYDMTDEDIRKAVSELLHFYA,-0.305
23,HMSDIDHIAGRRIRQARLNAGMTLETLASQAGISKALLSKIENSKVSSPLATFSKISKVLGVPLSDLLKE,-0.748
24,HMSDILALMPGTIKQILVAPGDSVKRGQTVIIMESMKMELTIAAHRDGVVKRIPVEQGGQVEKGMRLLELE,-1.86
25,HMSDIPEGYMSRVQLGDEWGIHLATFDKAVIAVKEKLGTVVFIDKSNNTTAGYSPEQQTIIYDWLAEN,-2.22
